Assay [1] concerns the target T1, human CARL-AP chimeric protein (extracellular region of human CARL linked with human secretory placental … (human, UniProt P05187 23-511)).
T1 construct: also called human CARL-AP chimeric proteins
The assay can be described thus: adhesion of human CAR-expressing B300 cells to immobilized human CARL-AP.

Assay [2] deals with T2, CAR-AP chimeric protein (extracellular region of mouse CAR linked with human secretory placental alkaline … (mouse; human, UniProt P97792 20-237; P05187 23-511).
T2 construct: Secreted from 293/EBNA-1 cells; also called CAR-AP chimeric proteins; immobilized CAR
The assay can be described thus: adhesion of transfected B300 cells to immobilized CAR-AP.

Assay [3] concerns the target T2, CAR-AP chimeric protein (extracellular …). In words: SPR (BIAcore X): CAR-AP captured by anti-alkaline phosphatase antibody on CM5 chip, CARL-Fc supernatant at 20, 6 or 0.6 nM. As for the experimental part: Then, a culture supernatant comprising CAR-AP chimeric protein or control AP chimeric protein diluted to 20 nM with HBS-EP buffer (BIAcore) was added to immobilize 500 RU of AP chimeric proteins onto the sensor chip. The protein-protein interactions were measured by adding culture supernatants comprising CARL-Fc chimeric proteins diluted to 20 nM, 6 nM, or 0.6 nM with HBS-EP buffer (BIAcore) at 20 μl/min for 210 seconds.

The target of assay [4] is T3, human CAR-AP chimeric protein (extracellular region of human CAR linked with human secretory placental … (human, UniProt P78310 20-237; P05187 23-511).
T3 construct: also called human CAR-AP chimeric proteins
In words: cell surface binding of human CAR-AP to transfected B300 cells.

The target in assay [5] is T4, CARL-AP chimeric protein (extracellular region of mouse CARL linked with human secretory placental alkaline … (mouse; human, UniProt P05187 23-511).
T4 construct: also called CARL-AP proteins; chimeric protein of ENSMUSG0000048534 with AP
In words: adhesion of B300/CARL cells to immobilized AP chimeric proteins (method of Example 4, proteins applied at 10 nM). The protocol:
Cell adhesion experiments were carried out using AP chimeric proteins to identify molecules functioning as adhesion molecules that adhere to lymphocytes. First, 50 μl of 10 μg/ml anti-alkaline phosphatase antibody (Seradyn MIA1802) was added to 96 well ELISA plates (Nunc), and allowed to stand at 37° C. for 30 minutes to immobilize the antibody. After washing the plates with PBS, the non-specifically binding sites were blocked with BlockAce (Dainippon Pharmaceutical Co.). AP chimeric proteins were diluted to a final concentration of 10 nM, added to the wells, and allowed to stand at room temperature for 30 minutes to immobilize the proteins. Activated lymphocytes were suspended in cell adhesion buffer (RPMI 1640, 0.5% BSA, and 20 mM HEPES (pH 7.4)), fluorescently labeled with Calcein-AM (Dojin), then added to wells at 1×10⁵ cells/well, and incubated at 37° C. for one hour. The non-adherent cells were washed away. A cell lysis solution (10 mM TrisHCl (pH 8.0), 1% TritonX-100) was added, then adherent cells were quantified using Wallac ARVO SX 1420 MULTILABEL COUNTER (Perkin Elmer) and measuring at an excitation wavelength of 485 nm and detection wavelength of 535 nm. The degree of cell adhesion was represented as a percentage ratio of adherent cells to added cells. […]

Assay [6] has as its target T2, CAR-AP chimeric protein (extracellular …). The assay can be described thus: adhesion of CARL-expressing B300 cells to immobilized AP chimeric proteins.

T2 sequence (P97792 other isoform, or with tags, fused parts or gaps mutant): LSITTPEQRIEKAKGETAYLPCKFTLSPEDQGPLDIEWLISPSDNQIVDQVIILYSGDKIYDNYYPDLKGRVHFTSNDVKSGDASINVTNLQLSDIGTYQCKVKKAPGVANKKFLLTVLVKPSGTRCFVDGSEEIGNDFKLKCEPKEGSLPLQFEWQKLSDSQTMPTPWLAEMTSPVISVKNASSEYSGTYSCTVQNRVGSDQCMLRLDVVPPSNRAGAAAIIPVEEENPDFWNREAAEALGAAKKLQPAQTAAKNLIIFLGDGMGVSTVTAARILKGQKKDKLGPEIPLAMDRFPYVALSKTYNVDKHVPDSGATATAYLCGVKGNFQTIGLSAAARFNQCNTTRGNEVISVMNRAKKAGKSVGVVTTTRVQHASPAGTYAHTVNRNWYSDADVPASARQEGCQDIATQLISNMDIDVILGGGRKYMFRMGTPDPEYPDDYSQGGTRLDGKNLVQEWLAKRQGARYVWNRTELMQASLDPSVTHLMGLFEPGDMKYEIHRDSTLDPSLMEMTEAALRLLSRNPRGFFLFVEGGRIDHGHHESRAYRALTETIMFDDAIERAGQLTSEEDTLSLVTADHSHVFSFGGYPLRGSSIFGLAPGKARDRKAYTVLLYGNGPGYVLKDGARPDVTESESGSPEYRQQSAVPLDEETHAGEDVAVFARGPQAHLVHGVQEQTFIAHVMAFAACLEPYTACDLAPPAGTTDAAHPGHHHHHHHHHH

B1: human CAR, full length, expressed on B300 cells (receptor, UniProt P78310 20-365, looked up)
chain: LSITTPEEMIEKAKGETAYLPCKFTLSPEDQGPLDIEWLISPADNQKVDQVIILYSGDKIYDDYYPDLKGRVHFTSNDLKSGDASINVTNLQLSDIGTYQCKVKKAPGVANKKIHLVVLVKPSGARCYVDGSEEIGSDFKIKCEPKEGSLPLQYEWQKLSDSQKMPTSWLAEMTSSVISVKNASSEYSGTYSCTVRNRVGSDQCLLRLNVVPPSNKAGLIAGAIIGTLLALALIGLIIFCCRKKRREEKYEKEVHHDIREDVPPPKSRTSTARSYIGSNHSSLGSMSPSNMEGYSKTQYNQVPSEDFERTPQSPTLPPAKVAAPNLSRMGAIPVMIPAQSKDGSIV
notes: whole, on cells; also called human CAR-expressing B300 cells
For the molecule B1, in assay [1], the binding result is listed as “binds”.

B2: domain 2-lacking CARL (positions 21 to 139 and 255 to 379) with FLAG tag, expressed on B300 cells (ligand)
chain: QGLPGLTVSSPQLRVHVGESVLMGCVVQRTEEKHVDRVDWLFSKDKDDASEYVLFYYSNLSVPTGRFQNRSHLVGDTFHNDGSLLLQDVQKADEGIYTCEIRLKNESMVMKKPVELWVLQDEFQRTISPTPPTDKGQQGILNGNQLVIIVGIVCATFLLLPVLILIVKKAKWNKSSVSSMASVKSLENKEKINPEKHIYSSITTWETTERGISGESEGTYMTMNPVWPSSPKASSLVRSSVRSK
notes: On cells; also called B300 cells expressing CARL lacking domain 2; not shown: FLAG tag from vector pMX ssFLAG MCS2.2 IRES Puro
As for B2, the binding result in assay [2] was “binds”.

B3: CARL-Fc chimeric protein (mouse CARL) (Fc fusion)
chain: QGLPGLTVSSPQLRVHVGESVLMGCVVQRTEEKHVDRVDWLFSKDKDDASEYVLFYYSNLSVPTGRFQNRSHLVGDTFHNDGSLLLQDVQKADEGIYTCEIRLKNESMVMKKPVELWVLPEEPKDLRVRVGDTTQMRCSIQSTEEKRVTKVNWMFSSGSHTEEETVLSYDSNMRSGKFQSLGRFRNRVDLTGDISRNDGSIKLQTVKESDRGIYTCSIYVGKLESRKTIVLHVVQDEFQRTISPTPPTDKGQQGILNGNQL
notes: The making of CARL-Fc is described nowhere; used as culture supernatant; only its extracellular region is in the construct; also called CARL-Fc chimeric proteins; not shown: Fc part: species, isotype and any linker are not described
For B3, in assay [3], the Kd stood at 4.8 nM.

B4: human CARL (human AMICA), full length, expressed on B300 cells (ligand)
chain: LNDLNVSPPELTVHVGDSALMGCVFQSTEDKCIFKIDWTLSPGEHAKDEYVLYYYSNLSVPIGRFQNRVHLMGDILCNDGSLLLQDVQEADQGTYICEIRLKGESQVFKKAVVLHVLPEEPKELMVHVGGLIQMGCVFQSTEVKHVTKVEWIFSGRRAKEEIVFRYYHKLRMSVEYSQSWGHFQNRVNLVGDIFRNDGSIMLQGVRESDGGNYTCSIHLGNLVFKKTIVLHVSPEEPRTLVTPAALRPLVLGGNQLVIIVGIVCATILLLPVLILIVKKTCGNKSSVNSTVLVKNTKKTNPEIKEKPCHFERCEGEKHIYSPIIVREVIEEEEPSEKSEATYMTMHPVWPSLRSDRNNSLEKKSGGGMPKTQQAF
notes: also called human CARL-expressing B300 cells; B300 cells expressing human CARL
B4: the binding result in assay [4] is “binds”.

B5: domain 1-lacking CARL (positions 21 to 29 and 140 to 379) with FLAG tag, expressed on B300 cells (ligand)
chain: QGLPGLTVSPEEPKDLRVRVGDTTQMRCSIQSTEEKRVTKVNWMFSSGSHTEEETVLSYDSNMRSGKFQSLGRFRNRVDLTGDISRNDGSIKLQTVKESDRGIYTCSIYVGKLESRKTIVLHVVQDEFQRTISPTPPTDKGQQGILNGNQLVIIVGIVCATFLLLPVLILIVKKAKWNKSSVSSMASVKSLENKEKINPEKHIYSSITTWETTERGISGESEGTYMTMNPVWPSSPKASSLVRSSVRSK
notes: On cells; also called B300 cells expressing CARL lacking domain 1; not shown: FLAG tag from vector pMX ssFLAG MCS2.2 IRES Puro
Turning to B5, the binding result in assay [2] is “no binding”.

B6: mouse CARL (CAR ligand; ENSMUSG0000048534), full length, on cells (ligand)
chain: QGLPGLTVSSPQLRVHVGESVLMGCVVQRTEEKHVDRVDWLFSKDKDDASEYVLFYYSNLSVPTGRFQNRSHLVGDTFHNDGSLLLQDVQKADEGIYTCEIRLKNESMVMKKPVELWVLPEEPKDLRVRVGDTTQMRCSIQSTEEKRVTKVNWMFSSGSHTEEETVLSYDSNMRSGKFQSLGRFRNRVDLTGDISRNDGSIKLQTVKESDRGIYTCSIYVGKLESRKTIVLHVVQDEFQRTISPTPPTDKGQQGILNGNQLVIIVGIVCATFLLLPVLILIVKKAKWNKSSVSSMASVKSLENKEKINPEKHIYSSITTWETTERGISGESEGTYMTMNPVWPSSPKASSLVRSSVRSK
notes: also called CARL-expressing B300 cells; similar to AMICA (BC050133)
Turning to B6, the binding result in assay [5] is reported as “no binding”; in assay [6], “binds”.

B7: full-length CARL (positions 21 to 379) with vector signal sequence and FLAG tag, expressed on B300 cells (ligand)
chain: QGLPGLTVSSPQLRVHVGESVLMGCVVQRTEEKHVDRVDWLFSKDKDDASEYVLFYYSNLSVPTGRFQNRSHLVGDTFHNDGSLLLQDVQKADEGIYTCEIRLKNESMVMKKPVELWVLPEEPKDLRVRVGDTTQMRCSIQSTEEKRVTKVNWMFSSGSHTEEETVLSYDSNMRSGKFQSLGRFRNRVDLTGDISRNDGSIKLQTVKESDRGIYTCSIYVGKLESRKTIVLHVVQDEFQRTISPTPPTDKGQQGILNGNQLVIIVGIVCATFLLLPVLILIVKKAKWNKSSVSSMASVKSLENKEKINPEKHIYSSITTWETTERGISGESEGTYMTMNPVWPSSPKASSLVRSSVRSK
notes: also called B300 cells expressing full-length CARL; not shown: FLAG tag from vector pMX ssFLAG MCS2.2 IRES Puro
Turning to B7, the binding result in assay [2] is “binds”.

What is called Kd is the constant that tells how readily two partners part at equilibrium.
